# From the supplement of paper PMC9732359
# ± gives the uncertainty stated by the source.
# Assay: protein stability index of a GFP-peptide fusion (yeast GPS) (PSI 1-4); higher = more stable; sorted into four equal gates, so the index is relative within each strain
# Procedure, shortened: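 Plasmids isolated from each sorting gate were PCR-amplified and Illumina-sequenced, and barcodes assigned the reads to strains. The gates, four of equal size, were set by GFP/Cherry fluorescence ratio on mid-log cultures in leucine-free medium. These cultures were yeast carrying a pooled library of tiled 17-residue yeast protein peptides fused downstream of GFP on a plasmid that also expresses Cherry. The protein stability index is the sum of every gate's read frequency times its gate number.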
sequence,measurement,setting,value
VHPIPDVAFADGGKTLR [YMR129W/POM152],protein stability index,doa10∆,2.5 ± 0.064
same,protein stability index,pdr5∆,2.68 ± 0.086
same,protein stability index,san1∆,2.66 ± 0.084
same,protein stability index,ubr1∆,2.63 ± 0.051
CDILVATPGRLIDSLEN [PRP28],protein stability index,doa10∆,3.54 ± 0.12
same,protein stability index,pdr5∆,3.24 ± 0.11
same,protein stability index,san1∆,3.2 ± 0.06
same,protein stability index,ubr1∆,3.22 ± 0.065
GASINSMKANTSTNPNG [ARP7],protein stability index,doa10∆,2.72 ± 0.089
same,protein stability index,pdr5∆,3.19 ± 0.089
same,protein stability index,san1∆,2.74 ± 0.067
same,protein stability index,ubr1∆,2.93 ± 0.058
QGMEGTVDLALFGSPPF [YMR129W/POM152],protein stability index,doa10∆,3.39 ± 0.079
same,protein stability index,pdr5∆,3.41 ± 0.068
same,protein stability index,san1∆,3.35 ± 0.076
same,protein stability index,ubr1∆,3.21 ± 0.047
YLESLFAKQVDVQLERV [IRR1],protein stability index,doa10∆,2.49 ± 0.095
same,protein stability index,pdr5∆,2.19 ± 0.074
same,protein stability index,san1∆,2.36 ± 0.12
same,protein stability index,ubr1∆,2.5 ± 0.051
DTGTLDTKSVVGLVMFS [RPN2],protein stability index,doa10∆,2.67 ± 0.083
same,protein stability index,pdr5∆,2.66 ± 0.084
same,protein stability index,san1∆,2.91 ± 0.075
same,protein stability index,ubr1∆,2.42 ± 0.069
EECGRTIHRSFTICLND [CSN12],protein stability index,doa10∆,2.93 ± 0.064
same,protein stability index,pdr5∆,2.87 ± 0.065
same,protein stability index,san1∆,2.84 ± 0.055
same,protein stability index,ubr1∆,2.86 ± 0.044
FNFGGKSDTVTSASQPF [YOR098C/NUP1],protein stability index,doa10∆,2.21 ± 0.056
same,protein stability index,pdr5∆,2.03 ± 0.056
same,protein stability index,san1∆,2.07 ± 0.071
same,protein stability index,ubr1∆,1.93 ± 0.049
DKKLLRRLLNLYNDNNK [SWI1],protein stability index,doa10∆,2.48 ± 0.088
same,protein stability index,pdr5∆,2.62 ± 0.072
same,protein stability index,san1∆,2.57 ± 0.085
same,protein stability index,ubr1∆,2.6 ± 0.068
DENKAGATSKPAFSFGA [YJL041W/NSP1],protein stability index,doa10∆,3.15 ± 0.07
same,protein stability index,pdr5∆,3.32 ± 0.068
same,protein stability index,san1∆,3.33 ± 0.048
same,protein stability index,ubr1∆,3.1 ± 0.061
IFSYLQFTSSLFKALKV [RGR1],protein stability index,doa10∆,1.61 ± 0.059
same,protein stability index,pdr5∆,1.3 ± 0.052
same,protein stability index,san1∆,1.12 ± 0.11
same,protein stability index,ubr1∆,1.05 ± 0.056
VDPKRLAMVIIKEFVDD [DSN1],protein stability index,doa10∆,3.33 ± 0.1
same,protein stability index,pdr5∆,3.3 ± 0.1
same,protein stability index,san1∆,3.31 ± 0.096
same,protein stability index,ubr1∆,3.1 ± 0.066
NVIRSLEQEYRLILLLN [RMP1],protein stability index,doa10∆,1.44 ± 0.036
same,protein stability index,pdr5∆,1.19 ± 0.022
same,protein stability index,san1∆,1.29 ± 0.071
same,protein stability index,ubr1∆,1.35 ± 0.038
EKWLLNQIPVTEHSKVT [SRB6],protein stability index,doa10∆,1.9 ± 0.051
same,protein stability index,pdr5∆,2.6 ± 0.068
same,protein stability index,san1∆,1.99 ± 0.12
same,protein stability index,ubr1∆,2.37 ± 0.057
RTYSKTYSTPKRPYESS [RPS9A],protein stability index,doa10∆,2.19 ± 0.055
same,protein stability index,pdr5∆,2.23 ± 0.066
same,protein stability index,san1∆,2.46 ± 0.053
same,protein stability index,ubr1∆,2.53 ± 0.043
NVTKSSVGVIINKMVGN [RPL21A],protein stability index,doa10∆,2.17 ± 0.099
same,protein stability index,pdr5∆,2.98 ± 0.11
same,protein stability index,san1∆,2.46 ± 0.19
same,protein stability index,ubr1∆,2.91 ± 0.13
LVNIRTQTSKEQEIENN [ITC1],protein stability index,doa10∆,2.9 ± 0.054
same,protein stability index,pdr5∆,3.05 ± 0.067
same,protein stability index,san1∆,2.9 ± 0.061
same,protein stability index,ubr1∆,3.06 ± 0.066
MAYFDENLNRNWRGREH [BRN1],protein stability index,doa10∆,3.25 ± 0.099
same,protein stability index,pdr5∆,3.41 ± 0.16
same,protein stability index,san1∆,2.99 ± 0.091
same,protein stability index,ubr1∆,3.14 ± 0.095
LQRHLSLGIRPCLRKYE [RRP43],protein stability index,doa10∆,2.61 ± 0.061
same,protein stability index,pdr5∆,2.66 ± 0.063
same,protein stability index,san1∆,2.82 ± 0.075
same,protein stability index,ubr1∆,3.08 ± 0.053
DFTLIPRMASVFENYVK [CDC53],protein stability index,doa10∆,3.15 ± 0.091
same,protein stability index,pdr5∆,2.88 ± 0.06
same,protein stability index,san1∆,2.71 ± 0.061
same,protein stability index,ubr1∆,3.13 ± 0.081
SKKLDVTVEQLRSIYHQ [NSL1],protein stability index,doa10∆,2.42 ± 0.067
same,protein stability index,pdr5∆,2.25 ± 0.06
same,protein stability index,san1∆,1.85 ± 0.055
same,protein stability index,ubr1∆,2.08 ± 0.057
KDGRIRIFKITEKLSPL [YGL100W/SEH1],protein stability index,doa10∆,2.84 ± 0.079
same,protein stability index,pdr5∆,2.85 ± 0.09
same,protein stability index,san1∆,2.57 ± 0.08
same,protein stability index,ubr1∆,2.79 ± 0.045
ALLRPGRLDRKVEIPLP [RPT4],protein stability index,doa10∆,2.99 ± 0.28
TPDATKIKAILESVGIE [RPP2A],protein stability index,doa10∆,2.31 ± 0.084
same,protein stability index,pdr5∆,3.2 ± 0.16
same,protein stability index,san1∆,3.08 ± 0.12
same,protein stability index,ubr1∆,3.18 ± 0.063
VSKPSLLHETNDSFKGL [PRP8],protein stability index,pdr5∆,2.74 ± 0.13
same,protein stability index,ubr1∆,2.99 ± 0.097
LICQNNLNAFVDFSKYN [SRP72],protein stability index,doa10∆,3.1 ± 0.077
same,protein stability index,pdr5∆,2.99 ± 0.063
same,protein stability index,san1∆,3.11 ± 0.044
same,protein stability index,ubr1∆,2.54 ± 0.061
SRSTEKKNDMNTSAKNK [SIR4],protein stability index,doa10∆,2.52 ± 0.051
same,protein stability index,pdr5∆,2.66 ± 0.05
same,protein stability index,san1∆,2.9 ± 0.052
same,protein stability index,ubr1∆,2.88 ± 0.047
LLTSAGCKNGSFTLLNQ [NUT1],protein stability index,doa10∆,2.21 ± 0.12
same,protein stability index,pdr5∆,2.32 ± 0.067
same,protein stability index,san1∆,2.3 ± 0.28
same,protein stability index,ubr1∆,2.68 ± 0.12
DVHLLESKVYHKLRNLA [RPN6],protein stability index,doa10∆,1.95 ± 0.069
same,protein stability index,pdr5∆,2.33 ± 0.086
same,protein stability index,san1∆,2.17 ± 0.14
same,protein stability index,ubr1∆,2.13 ± 0.11
IVLSDQTQEFFLSSFDD [YJL039C/NUP192],protein stability index,doa10∆,2.91 ± 0.12
same,protein stability index,pdr5∆,2.89 ± 0.093
same,protein stability index,san1∆,2.92 ± 0.057
same,protein stability index,ubr1∆,3.25 ± 0.13
DVVAHRQLAGAIGYEPL [DIS3],protein stability index,doa10∆,2.65 ± 0.074
same,protein stability index,pdr5∆,2.43 ± 0.075
same,protein stability index,san1∆,1.88 ± 0.15
same,protein stability index,ubr1∆,2.19 ± 0.11
QFMKRFPMPYENEEFIT [ECM29],protein stability index,doa10∆,2.88 ± 0.062
same,protein stability index,pdr5∆,2.83 ± 0.094
same,protein stability index,san1∆,2.85 ± 0.083
AKPDNLANFSNEVAMNN [SWP82],protein stability index,doa10∆,3.22 ± 0.082
same,protein stability index,pdr5∆,3.21 ± 0.078
same,protein stability index,san1∆,3.13 ± 0.052
same,protein stability index,ubr1∆,3.23 ± 0.067
ETPNQDATYDSALELVG [RPN6],protein stability index,doa10∆,2.62 ± 0.088
same,protein stability index,pdr5∆,2.86 ± 0.072
same,protein stability index,san1∆,2.61 ± 0.081
same,protein stability index,ubr1∆,2.6 ± 0.1
HVKVNDKKEMTIYNNIR [SIR3],protein stability index,doa10∆,3.04 ± 0.052
same,protein stability index,pdr5∆,2.91 ± 0.062
same,protein stability index,san1∆,2.87 ± 0.04
same,protein stability index,ubr1∆,3.228 ± 0.032
SKTGIIAYSDSQSSNAN [SIN4],protein stability index,doa10∆,2.63 ± 0.043
same,protein stability index,pdr5∆,2.6 ± 0.043
same,protein stability index,san1∆,2.68 ± 0.044
same,protein stability index,ubr1∆,2.53 ± 0.058
STIPTRENGKGGQIAHI [ROX3],protein stability index,doa10∆,3.01 ± 0.11
same,protein stability index,pdr5∆,3.17 ± 0.092
same,protein stability index,san1∆,2.98 ± 0.052
same,protein stability index,ubr1∆,2.97 ± 0.19
DVAYLLKSESATSQYLK [YGL172W/NUP49],protein stability index,doa10∆,2.25 ± 0.14
same,protein stability index,pdr5∆,3.21 ± 0.094
same,protein stability index,san1∆,2.94 ± 0.1
same,protein stability index,ubr1∆,3.03 ± 0.11
VEVCLADLQGSEDHSFR [RPS1A],protein stability index,doa10∆,3.44 ± 0.18
same,protein stability index,pdr5∆,3.27 ± 0.11
same,protein stability index,san1∆,3.21 ± 0.17
same,protein stability index,ubr1∆,3.25 ± 0.19
VWNYTFMGTAFNQEGDY [PRP8],protein stability index,pdr5∆,3.09 ± 0.19
same,protein stability index,san1∆,2.73 ± 0.28
KSRIVKVVGPRGTLTKN [RPL9A],protein stability index,doa10∆,2.66 ± 0.074
same,protein stability index,pdr5∆,2.92 ± 0.058
same,protein stability index,san1∆,2.65 ± 0.052
same,protein stability index,ubr1∆,2.71 ± 0.033
KTEPVGTGLQSYLEERE [RPC53],protein stability index,doa10∆,3.4 ± 0.25
same,protein stability index,pdr5∆,3.24 ± 0.13
same,protein stability index,san1∆,3.21 ± 0.12
same,protein stability index,ubr1∆,3.2 ± 0.11
SLKGYKIENSVQIGAEI [CSI1],protein stability index,pdr5∆,3.21 ± 0.2
same,protein stability index,san1∆,3.25 ± 0.13
same,protein stability index,ubr1∆,3.17 ± 0.17
SNIITKSLVQYIELLPN [DIS3],protein stability index,doa10∆,2.64 ± 0.072
same,protein stability index,pdr5∆,2.08 ± 0.065
same,protein stability index,san1∆,2.22 ± 0.072
same,protein stability index,ubr1∆,2.38 ± 0.05
DEKKDSDSSKPAFSFGT [YJL041W/NSP1],protein stability index,doa10∆,2.75 ± 0.076
same,protein stability index,pdr5∆,2.49 ± 0.068
same,protein stability index,san1∆,3.07 ± 0.067
same,protein stability index,ubr1∆,2.97 ± 0.042
GLMLGEFVDDYTVNVVD [RPN11],protein stability index,doa10∆,3.32 ± 0.13
same,protein stability index,pdr5∆,3.26 ± 0.1
same,protein stability index,san1∆,3.13 ± 0.14
same,protein stability index,ubr1∆,3.09 ± 0.076
KHYKNIPRNSPLSDLKK [RPC82],protein stability index,doa10∆,2.88 ± 0.15
same,protein stability index,pdr5∆,2.97 ± 0.17
same,protein stability index,san1∆,2.59 ± 0.19
same,protein stability index,ubr1∆,2.97 ± 0.083
DLETSLSQSSSYLETLT [MED2],protein stability index,doa10∆,2.94 ± 0.075
same,protein stability index,pdr5∆,3.12 ± 0.11
same,protein stability index,san1∆,2.7 ± 0.077
same,protein stability index,ubr1∆,2.96 ± 0.099
ETIQADLNHVTEELQTQ [SMC2],protein stability index,doa10∆,3.21 ± 0.14
same,protein stability index,pdr5∆,3.21 ± 0.06
same,protein stability index,san1∆,3.02 ± 0.066
same,protein stability index,ubr1∆,3.01 ± 0.1
NIIASPLSAGFNYGKLP [SIN4],protein stability index,doa10∆,2.62 ± 0.079
same,protein stability index,pdr5∆,2.72 ± 0.086
same,protein stability index,san1∆,2.68 ± 0.048
same,protein stability index,ubr1∆,2.54 ± 0.076
VAESFTDEADSSMTEAS [SNF2],protein stability index,doa10∆,3.46 ± 0.12
same,protein stability index,pdr5∆,3.28 ± 0.11
same,protein stability index,san1∆,3.38 ± 0.053
same,protein stability index,ubr1∆,3.14 ± 0.096
EDCDLVIMALMLMSKIG [POP5],protein stability index,doa10∆,1.46 ± 0.038
same,protein stability index,pdr5∆,1.89 ± 0.053
same,protein stability index,san1∆,1.81 ± 0.069
same,protein stability index,ubr1∆,2.32 ± 0.037
QELCYPDENHDNTSHDE [BRN1],protein stability index,doa10∆,3.23 ± 0.073
same,protein stability index,pdr5∆,3.27 ± 0.061
same,protein stability index,san1∆,2.98 ± 0.061
same,protein stability index,ubr1∆,3.35 ± 0.056
